Residue numbers refer to the chain shown, from its start. One block for each binder: values may come before it. No end group written: not given here. *: point of attachment. 5FAM = O=C1OC2(c3ccc(O)cc3Oc3cc(O)ccc32)c2ccc(C(=O)*)cc21
T1: (HQ)5-HaloTag-JMJD2A double tudor domain (UniProt O75164 895-1011)
T1 sequence (looked up): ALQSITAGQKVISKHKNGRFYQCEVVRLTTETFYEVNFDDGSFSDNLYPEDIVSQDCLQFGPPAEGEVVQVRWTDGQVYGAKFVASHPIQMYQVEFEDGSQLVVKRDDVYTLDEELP

T2: (HQ)5-HaloTag-AIRE PHD1 (UniProt O43918 293-354)
T2 sequence (looked up): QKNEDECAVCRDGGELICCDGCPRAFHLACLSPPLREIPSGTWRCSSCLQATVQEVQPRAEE

T3: GST-JARID1A PHD3 D1629A (UniProt P29375 1601-1660, D1629A)
T3 sequence (looked up): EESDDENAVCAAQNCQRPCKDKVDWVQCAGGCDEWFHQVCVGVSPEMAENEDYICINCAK

T4: GST-JARID1A PHD3 D1629N (UniProt P29375 1601-1660, D1629N)
T4 sequence (looked up): T3 sequence (looked up) with A29N

T5: GST-JARID1A PHD3 D1624N (UniProt P29375 1601-1660, D1624N)
T5 sequence (looked up): T3 sequence (looked up) with D24N, A29D

T6: GST-JARID1A PHD3 D1624A (UniProt P29375 1601-1660, D1624A)
T6 sequence (looked up): T3 sequence (looked up) with D24A, A29D

T7: H3(1-19)K9me3K19fluo (UniProt P68431 2-20, trimethyl-lysine at position 9; fluorescein on lysine 19 (K19fluo))
T7 chain: ARTKQTARKSTGGKAPRKK

T8: (HQ)5-HaloTag-JARID1A PHD3 (UniProt P29375 1601-1660)
T8 sequence (looked up): T3 sequence (looked up) with A29D

B1: GST-RAG2 PHD (domain or fragment, UniProt P21784 414-487, looked up)
chain: GYWITCCPTCDVDINTWVPFYSTELNKPAMIYCSHGDGHWVHAQCMDLEERTLIHLSEGSNKYYCNEHVQIARA
B2: GST-JMJD2A DTD (domain or fragment, UniProt O75164 895-1011, looked up)
chain: T1 sequence (looked up)
B3: GST-AIRE PHD1 (domain or fragment, UniProt O43918 293-354, looked up)
chain: T2 sequence (looked up)
B4: GST-BHC80 PHD (domain or fragment, UniProt Q96BD5 486-543, looked up)
chain: IHEDFCSVCRKSGQLLMCDTCSRVYHLDCLDPPLKTIPKGMWICPRCQDQMLKKEEAI
B5: GST-JARID1A PHD3 (domain or fragment, UniProt P29375 1601-1660, looked up)
chain: T3 sequence (looked up) with A29D
B6: H3(1-14)K4unmodifiedK14fluo (peptide, UniProt P68431 2-15, looked up)
peptide: ARTKQTARKSTGGK(5FAM)
B7: H3(1-14)K4me3K14fluo (peptide, UniProt P68431 2-15, looked up)
peptide: ARTKQTARKSTGGK
modifications: trimethyl-lysine at position 4; 5-carboxyfluorescein on lysine 14
B8: GST-UHRF1 TTD (domain or fragment)
chain: MWDETELGLYKVNEYVDARDTNMGAWFEAQVVRVTRKAPSRDEPCSSTSRPALEEDVIYHVKYDDYPENGVVQMNSRDVRARARTIIKWQDLEVGQVVMLNYNPDNPKERGFWYDAEISRKRETRTARELYANVVLGDDSLNDCRIIFVDEVFKIERPGE

Assays:
[1] = molecular target: B7; test: fluorescence polarisation
[2] = molecular target: B6; test: fluorescence polarisation
[3] = molecular target: T1, (HQ)5-HaloTag-JMJD2A double tudor domain; test: HaloTag plate binding assay
[4] = molecular target: T2, (HQ)5-HaloTag-AIRE PHD1; test: HaloTag plate binding assay
[5] = molecular target: (HQ)5-HaloTag-BHC80 PHD (UniProt Q96BD5 486-543)
[6] = molecular target: B5; test: fluorescence polarisation
[7] = molecular target: T3, GST-JARID1A PHD3 D1629A; test: fluorescence polarisation
[8] = molecular target: T4, GST-JARID1A PHD3 D1629N; test: fluorescence polarisation
[9] = molecular target: T5, GST-JARID1A PHD3 D1624N; test: fluorescence polarisation
[10] = molecular target: T6, GST-JARID1A PHD3 D1624A; test: fluorescence polarisation
[11] = molecular target: T7, H3(1-19)K9me3K19fluo; test: fluorescence polarisation
[12] = molecular target: T8, (HQ)5-HaloTag-JARID1A PHD3; test: pull-down
[13] = molecular target: T8, (HQ)5-HaloTag-JARID1A PHD3; test: HaloTag plate binding assay

Binder: B1
protein concentration at 90% fraction bound [1]: 25 µM

Binder: B2
protein concentration at 90% fraction bound [1]: 4 µM

Binder: B3
protein concentration at 90% fraction bound [2]: 4 µM

Binder: B4
protein concentration at 90% fraction bound [2]: 60 µM

binding result [3]: binds
Binder: ARTKQTARKSTEW (Kme3 (trimethyl-lysine) at position 4; E(PEG-biotin) at position 12) [biotinylated histone H3 (1-11) peptide trimethylated at lysine 4]

binding result [4]: binds | Kd [5]: > 15 µM
Binder: ARTKQTARKSTEW (E(PEG-biotin) at position 12) [biotinylated histone H3 (1-11) peptide, unmethylated]

Binder: B5
protein concentration at 90% fraction bound [1]: 1 µM

Binder: B6
Kd [6]: 9.35 ± 1.57 µM

Binder: B7
Kd [7]: 4.05 ± 0.691 µM | Kd [8]: 3.81 ± 0.551 µM | Kd [9]: 0.634 ± 0.08 µM | Kd [6]: 0.294 ± 0.046 µM | Kd [10]: 1.15 ± 0.145 µM

Binder: B8
protein concentration at 90% fraction bound [11]: 18 µM

IC50 [12]: 13.6 ± 4.5 µM | IC50 [13]: 2.97 ± 0.35 µM
Binder: ARTKQTARKSTW (Kme3 (trimethyl-lysine) at position 4) [unlabeled (no biotin) histone H3 (1-11) K4me3 peptide]

— publication PMC3567257 (Biochemistry, 2012)
